The test has as its target T1, human raver1 RRM1-3 domains (residues 39-321) (human, UniProt Q8IY67 39-321).
T1 sequence: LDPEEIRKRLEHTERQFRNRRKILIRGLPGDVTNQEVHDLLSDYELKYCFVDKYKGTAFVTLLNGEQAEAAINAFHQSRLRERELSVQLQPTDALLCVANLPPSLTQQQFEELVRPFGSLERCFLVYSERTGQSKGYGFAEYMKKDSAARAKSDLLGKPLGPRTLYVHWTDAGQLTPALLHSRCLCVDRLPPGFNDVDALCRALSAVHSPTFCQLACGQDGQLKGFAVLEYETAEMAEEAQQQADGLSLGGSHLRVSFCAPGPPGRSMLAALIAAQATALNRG
The test can be described thus: SEC.

From article PMC4259812 (The Journal of Cell Biology, 2014) come the findings set out here.

B1: human vinculin tail domain (Vt), wild type, residues 891-1,066 (domain or fragment)
chain: GEVINQPMMMAARQLHDEARKWSSKGNDIIAAAKRMALLMAEMSRLVRGGSGTKRALIQCAKDIAKASDEVTRLAKEVAKQCTDKRIRTNLLQVCERIPTISTQLKILSTVKATMLGRTNISDEESEQATEMLVHNAQNLMQSVKETVREAEAASIKIRTDAGFTLRWVRKTPWYQ
With B1, the binding result is “binds”.
